In paper PMC12860359 (2025) one finds koff and Kd data, which are given here for three molecules.

In general, koff refers to the first-order rate constant of dissociation. For orientation: Kd means a measure of binding affinity in units of concentration. A lower Kd goes with a tighter complex.

Assay [1] has as its target T1, MBP-HA Rap1B WT (human, UniProt P61224-1 1-184).
T1 chain: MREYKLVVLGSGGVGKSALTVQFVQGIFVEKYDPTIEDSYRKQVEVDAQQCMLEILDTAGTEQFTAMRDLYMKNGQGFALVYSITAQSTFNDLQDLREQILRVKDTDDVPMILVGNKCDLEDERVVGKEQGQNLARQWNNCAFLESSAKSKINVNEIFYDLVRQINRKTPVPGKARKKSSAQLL
Briefly: BLI; GTPγS-bound Rap1B. (In general: Biolayer interferometry detects binding as a change in optical thickness at a sensor tip.)

The target of assay [2] is T1, MBP-HA Rap1B WT. Briefly: BLI; GDP-bound Rap1B.
Assay [3] has as its target T1, MBP-HA Rap1B WT. Nature of the assay: BLI; GTPγS-bound Rap1B.

B1: VHH-hFcS A47 (Fc fusion)
chain: EVQLQASGGGFVQPGGSLRLSCAASGFTSKNTIMGWFRQAPGKEREFVSAISSAPGYWEYYADSVKGRFTISRDNSKNTVYLQMNSLRAEDTATYYCAAPINQAPGRPIRSDQYWGQGTQVTVSS
In the case of B1, the koff with MBP-HA Rap1B WT [1] amounted to 0.000574 s⁻¹. In the assay with MBP-HA Rap1B WT [2], this molecule showed a Kd of 722 nM.

B2: VHH-hFcS B89 (Fc fusion)
chain: EVQLQASGGGFVQPGGSLRLSCAASGFTSKNTIMGWFRQAPGKEREFVSAISSAPGYWEYYADSVKGRFTISRDNSKNTVYLQMNSLRAEDTATYYCAAPINQAPGRPIRWDQYWGQGTQVTVSS
With B2, binding with MBP-HA Rap1B WT [2] was put at a Kd of 20.2 nM.

B3: VHH-hFcS B14 (Fc fusion)
chain: EVQLQASGGGFVQPGGSLRLSCAASGFTSKNTIMGWYRQAPGKERELVSAISSAPGYWEYYADSVKGRFTISRDNSKNTVYLQMNSLRAEDTATYYCAAPINQAPGRPIRSDQYWGQGTQVTVSS
For B3, the Kd in the assay with MBP-HA Rap1B WT [3] came to 25.8 nM; in the assay with MBP-HA Rap1B WT [2], 295 nM. In the assay with MBP-HA Rap1B WT [1], this molecule displayed an off-rate constant (koff) of 0.00104 s⁻¹.
